Consider 42 molecules from patent US20220064329A1 (Novo Nordisk, published 2022).

T1: recombinant human activated Factor VII (FVIIa) (human, UniProt P08709 61-212; P08709 213-466, ten glutamate residues of the Gla domain may be gamma-carboxylated)
T1 construct: chains tethered by a disulfide bond; also called Factor VIIa; rFVIIa
T1 sequence 1: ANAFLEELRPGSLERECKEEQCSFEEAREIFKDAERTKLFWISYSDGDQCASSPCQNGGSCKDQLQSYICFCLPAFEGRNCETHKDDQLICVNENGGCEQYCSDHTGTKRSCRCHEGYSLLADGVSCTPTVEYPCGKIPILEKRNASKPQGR
T1 sequence 2: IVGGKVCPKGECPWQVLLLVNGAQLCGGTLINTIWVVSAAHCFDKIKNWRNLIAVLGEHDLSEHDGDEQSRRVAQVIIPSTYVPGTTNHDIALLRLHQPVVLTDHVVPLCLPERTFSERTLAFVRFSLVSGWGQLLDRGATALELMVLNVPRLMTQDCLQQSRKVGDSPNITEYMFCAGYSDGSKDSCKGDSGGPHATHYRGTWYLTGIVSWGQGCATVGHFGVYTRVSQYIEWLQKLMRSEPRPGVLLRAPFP

B1: VH SEQ ID NO 634 / VL SEQ ID NO 422 (antibody, IgG4, V domains shown)
VH: QVQLQESGPGLVKPSQTLSLTCTVSGYSISSDSAWSWIRQPPGKGLEWIGYIQYSGSTNYNPSLKSRVTISRDTSKNQFSLKLSSVTAADTAVYYCARSVNYYGNSFAVGYWGQGTLVTVSS
VL: EIVLTQSPATLSLSPGERATLSCRASQGVSDYLAWYQQKPGQAPRLLIKYASQPATGIPARFSGSGSGTDFTLTISSLEPEDFAVYYCQQGHSFPLTFGQGTKLEIK
notes: humanized 11F2; IgG4 S228P/kappa
B2: VH SEQ ID NO 634 / VL SEQ ID NO 430 (antibody, IgG4, V domains shown)
VH: B1 VH
VL: B1 VL with A84G, Q90N
notes: as for B1
B3: VH SEQ ID NO 642 / VL SEQ ID NO 430 (antibody, IgG4, V domains shown)
VH: B1 VH with Q53Y, R72V, L117S
VL: B1 VL with A84G, Q90N
notes: as for B1
B4: VH SEQ ID NO 634 / VL SEQ ID NO 462 (antibody, IgG4, V domains shown)
VH: B1 VH
VL: B1 VL with A34H, Q90N, Q100A
notes: as for B1
B5: VH SEQ ID NO 642 / VL SEQ ID NO 326 (antibody, IgG4, V domains shown)
VH: B1 VH with Q53Y, R72V, L117S
VL: B1 VL with V29I, A34H, Q42E, A51T, A84G, Q90N, Q100A, I106L
notes: as for B1
B6: VH SEQ ID NO 650 / VL SEQ ID NO 334 (antibody, IgG4, V domains shown)
VH: B1 VH with G45K, Y111P
VL: B1 VL with V29I, A34H, Q90N
notes: as for B1
B7: VH SEQ ID NO 642 / VL SEQ ID NO 470 (antibody, IgG4, V domains shown)
VH: B1 VH with Q53Y, R72V, L117S
VL: B1 VL with A34H, Q90N
notes: as for B1
B8: VH SEQ ID NO 634 / VL SEQ ID NO 494 (antibody, IgG4, V domains shown)
VH: B1 VH
VL: B1 VL with A34H, F83V, Q90N
notes: as for B1
B9: VH SEQ ID NO 650 / VL SEQ ID NO 406 (antibody, IgG4, V domains shown)
VH: B1 VH with G45K, Y111P
VL: B1 VL with Q90N, Q100A
notes: as for B1
B10: VH SEQ ID NO 642 / VL SEQ ID NO 454 (antibody, IgG4, V domains shown)
VH: B1 VH with Q53Y, R72V, L117S
VL: B1 VL with A34H, Q42E, Q90N
notes: as for B1
B11: VH SEQ ID NO 642 / VL SEQ ID NO 350 (antibody, IgG4, V domains shown)
VH: B1 VH with Q53Y, R72V, L117S
VL: B1 VL with V29I, A34H, A51T, Q90N, Q100A, I106L
notes: as for B1
B12: VH SEQ ID NO 650 / VL SEQ ID NO 366 (antibody, IgG4, V domains shown)
VH: B1 VH with G45K, Y111P
VL: B1 VL with V29L, Q42E, Q90N
notes: as for B1
B13: VH SEQ ID NO 642 / VL SEQ ID NO 358 (antibody, IgG4, V domains shown)
VH: B1 VH with Q53Y, R72V, L117S
VL: B1 VL with V29I, A34H, A51T, Q90N
notes: as for B1
B14: VH SEQ ID NO 642 / VL SEQ ID NO 382 (antibody, IgG4, V domains shown)
VH: B1 VH with Q53Y, R72V, L117S
VL: B1 VL with V29L, A34H, Q42E, Q90N
notes: as for B1
B15: VH SEQ ID NO 634 / VL SEQ ID NO 446 (antibody, IgG4, V domains shown)
VH: B1 VH
VL: B1 VL with A51T, Q90N
notes: as for B1
B16: VH SEQ ID NO 642 / VL SEQ ID NO 318 (antibody, IgG4, V domains shown)
VH: B1 VH with Q53Y, R72V, L117S
VL: B1 VL with V29I, A34H, Q42E, A51T, Q90N
notes: as for B1
B17: VH SEQ ID NO 642 / VL SEQ ID NO 310 (antibody, IgG4, V domains shown)
VH: B1 VH with Q53Y, R72V, L117S
VL: B1 VL with V29I, Q90N
notes: as for B1
B18: VH SEQ ID NO 642 / VL SEQ ID NO 342 (antibody, IgG4, V domains shown)
VH: B1 VH with Q53Y, R72V, L117S
VL: B1 VL with V29I, A34H, A51T, T69R, Q90N, Q100A, I106L
notes: as for B1
B19: VH SEQ ID NO 642 / VL SEQ ID NO 494 (antibody, IgG4, V domains shown)
VH: B1 VH with Q53Y, R72V, L117S
VL: B1 VL with A34H, F83V, Q90N
notes: as for B1
B20: VH SEQ ID NO 642 / VL SEQ ID NO 334 (antibody, IgG4, V domains shown)
VH: B1 VH with Q53Y, R72V, L117S
VL: B1 VL with V29I, A34H, Q90N
notes: as for B1
B21: VH SEQ ID NO 650 / VL SEQ ID NO 358 (antibody, IgG4, V domains shown)
VH: B1 VH with G45K, Y111P
VL: B1 VL with V29I, A34H, A51T, Q90N
notes: as for B1
B22: VH SEQ ID NO 642 / VL SEQ ID NO 462 (antibody, IgG4, V domains shown)
VH: B1 VH with Q53Y, R72V, L117S
VL: B1 VL with A34H, Q90N, Q100A
notes: as for B1
B23: VH SEQ ID NO 642 / VL SEQ ID NO 502 (antibody, IgG4, V domains shown)
VH: B1 VH with Q53Y, R72V, L117S
VL: B1 VL with A34H, A51T, Q90N
notes: as for B1
B24: VH SEQ ID NO 642 / VL SEQ ID NO 486 (antibody, IgG4, V domains shown)
VH: B1 VH with Q53Y, R72V, L117S
VL: B1 VL with A34H, A84G, Q90N
notes: as for B1
B25: VH SEQ ID NO 634 / VL SEQ ID NO 502 (antibody, IgG4, V domains shown)
VH: B1 VH
VL: B1 VL with A34H, A51T, Q90N
notes: as for B1
B26: VH SEQ ID NO 634 / VL SEQ ID NO 486 (antibody, IgG4, V domains shown)
VH: B1 VH
VL: B1 VL with A34H, A84G, Q90N
notes: as for B1
B27: VH SEQ ID NO 650 / VL SEQ ID NO 326 (antibody, IgG4, V domains shown)
VH: B1 VH with G45K, Y111P
VL: B1 VL with V29I, A34H, Q42E, A51T, A84G, Q90N, Q100A, I106L
notes: as for B1
B28: VH SEQ ID NO 650 / VL SEQ ID NO 414 (antibody, IgG4, V domains shown)
VH: B1 VH with G45K, Y111P
VL: B1 VL with Q90N
notes: as for B1
B29: VH SEQ ID NO 650 / VL SEQ ID NO 374 (antibody, IgG4, V domains shown)
VH: B1 VH with G45K, Y111P
VL: B1 VL with V29L, A51T, Q90N
notes: as for B1
B30: VH SEQ ID NO 642 / VL SEQ ID NO 438 (antibody, IgG4, V domains shown)
VH: B1 VH with Q53Y, R72V, L117S
VL: B1 VL with F83V, Q90N
notes: as for B1
B31: VH SEQ ID NO 650 / VL SEQ ID NO 390 (antibody, IgG4, V domains shown)
VH: B1 VH with G45K, Y111P
VL: B1 VL with Q42E, Q90N
notes: as for B1
B32: VH SEQ ID NO 634 / VL SEQ ID NO 470 (antibody, IgG4, V domains shown)
VH: B1 VH
VL: B1 VL with A34H, Q90N
notes: as for B1
B33: VH SEQ ID NO 634 / VL SEQ ID NO 438 (antibody, IgG4, V domains shown)
VH: B1 VH
VL: B1 VL with F83V, Q90N
notes: as for B1
B34: VH SEQ ID NO 634 / VL SEQ ID NO 478 (antibody, IgG4, V domains shown)
VH: B1 VH
VL: B1 VL with A34H
notes: as for B1
B35: VH SEQ ID NO 650 / VL SEQ ID NO 382 (antibody, IgG4, V domains shown)
VH: B1 VH with G45K, Y111P
VL: B1 VL with V29L, A34H, Q42E, Q90N
notes: as for B1
B36: VH SEQ ID NO 650 / VL SEQ ID NO 342 (antibody, IgG4, V domains shown)
VH: B1 VH with G45K, Y111P
VL: B1 VL with V29I, A34H, A51T, T69R, Q90N, Q100A, I106L
notes: as for B1
B37: VH SEQ ID NO 650 / VL SEQ ID NO 350 (antibody, IgG4, V domains shown)
VH: B1 VH with G45K, Y111P
VL: B1 VL with V29I, A34H, A51T, Q90N, Q100A, I106L
notes: as for B1
B38: VH SEQ ID NO 650 / VL SEQ ID NO 398 (antibody, IgG4, V domains shown)
VH: B1 VH with G45K, Y111P
VL: B1 VL with Q42E, A51T, Q90N
notes: as for B1
B39: VH SEQ ID NO 642 / VL SEQ ID NO 478 (antibody, IgG4, V domains shown)
VH: B1 VH with Q53Y, R72V, L117S
VL: B1 VL with A34H
notes: as for B1
B40: VH SEQ ID NO 650 / VL SEQ ID NO 310 (antibody, IgG4, V domains shown)
VH: B1 VH with G45K, Y111P
VL: B1 VL with V29I, Q90N
notes: as for B1
B41: VH SEQ ID NO 634 / VL SEQ ID NO 454 (antibody, IgG4, V domains shown)
VH: B1 VH
VL: B1 VL with A34H, Q42E, Q90N
notes: as for B1
B42: VH SEQ ID NO 650 / VL SEQ ID NO 318 (antibody, IgG4, V domains shown)
VH: B1 VH with G45K, Y111P
VL: B1 VL with V29I, A34H, Q42E, A51T, Q90N
notes: as for B1

Where a chain is given by its changes, count along the chain named. Numbers in names are those of the source.

In the assay the target is T1, recombinant human activated Factor VII …. As to the kind of experiment: BLI (Fortebio). (BLI is a label-free optical method that tracks binding on a fibre tip over time.)
Usually Kd stands for the equilibrium constant for the complex coming apart. B1: the Kd is 26 nM.
Regarding B2, the Kd stood at 4.9 nM.
Take B3: the Kd came out at 540 nM.
As to B4, the Kd was 1.2 nM.
With B5 the figure was 23 nM.
For the molecule B6, the Kd was found to be 1.5 nM.
Turning to B7, the Kd stood at 47 nM.
For B8, the Kd is 1.3 nM.
With B9, the Kd was found to be 180 nM.
On to B10, for which the equilibrium dissociation constant (Kd) was 25 nM.
Take B11: the equilibrium dissociation constant (Kd) came out at 120 nM.
As to B12, the Kd was found to be 35 nM.
As to B13, the Kd was 320 nM.
As to B14, the Kd was found to be 600 nM.
Regarding B15, the dissociation constant (Kd) turned out to be 7.7 nM.
The value for B16 was 81 nM.
Regarding B17, the Kd was determined as 1600 nM.
In the case of B18, the Kd was found to be 40 nM.
With B19, the Kd came to 10 nM.
For B20, the Kd came to 1000 nM.
Consider B21, for which the Kd was determined as 1.1 nM.
With B22 the figure was 52 nM.
Turning to B23, the dissociation constant Kd was found to be 4.6 nM.
As for B24, the Kd was 7.7 nM.
On to B25, for which the Kd was 1.3 nM.
For the molecule B26, the Kd was determined as 1.4 nM.
With B27 the figure was 1.1 nM; with B28, 84 nM.
B29: the Kd came out at 46 nM.
On to B30, for which the dissociation constant (Kd) turned out to be 33 nM.
With B31, the equilibrium dissociation constant (Kd) was found to be 99 nM.
For B32, the Kd amounted to 1 nM.
With B33 the figure was 4.8 nM; with B34, 1.8 nM; with B35, 1.9 nM.
The value for B36 was 1.6 nM; that for B37 was 0.99 nM.
In the case of B38, the equilibrium dissociation constant (Kd) turned out to be 55 nM.
Regarding B39, the Kd amounted to 11 nM.
Regarding B40, the equilibrium dissociation constant (Kd) was found to be 16 nM.
For the molecule B41, the Kd was found to be 1.2 nM.
Regarding B42, the Kd worked out at 1.2 nM.
